Reference: the DeepSol protein solubility set

Assay: soluble on expression in E. coli; label from the status in PepcDB or PDB records

Soluble on expression in E. coli, not soluble:
MGSDKIHHHHHHMILKTNLFGHTYQFKSITDVLAKANEEKSGDRLAGVAAESAEERVAAKVVLSKMTLGDLRNNPVVPYETDEVTRIIQDQVNDRIHDSIKNWTVEELREWILDHKTTDADIKRVARGLTSEIIAAVTKLMSNLDLIYGAKKIRVIAHANTTIGLPGTFSARLQPNHPTDDPDGILASLMEGLTYGIGDAVIGLNPVDDSTDSVVRLLNKFEEFRSKWDVPTQTCVLAHVKTQMEAMRRGAPTGLVFQSIAGSEKGNTAFGFDGATIEEARQLALQSGAATGPNVMYFETGQGSELSSDAHFGVDQVTMEARCYGFAKKFDPFLVNTVVGFIGPEYLYDSKQVIRAGLEDHFMGKLTGISMGCDVCYTNHMKADQNDVENLSVLLTAAGCNFIMGIPHGDDVMLNYQTTGYHETATLRELFGLKPIKEFDQWMEKMGFSENGKLTSRAGDASIFLK
MGSDKIHHHHHHMINNYLERQIKENFPYQPTFEQEIAVKSLSEFLLSTLADEVFILRGYAGTGKTSLVGALVKTMDQLQQKAVLLAPTGRAAKVFSSYAGHPAFTIHKKIYRQQSFSNETSNFSINDNLATNTLFIVDEASMISNEGLSGSMFGTGRLLDDLIQFVYSGQGCRLLLMGDTAQLPPVGEELSPALFADALKGYGLEVREVDLTQVVRQIQESGILWNATQLRQLIAEDNCYSLPKIKITGFPDIKMVPGTELIDAITSCYDHDGMDETIVICRSNKRANLYNNGIRAQILWREDELNTGDMLMIAKNNYYWTEQYKEMDFIANGEIAVVRRVRKTREMYGFRFAEVTLRFPDQNDFELDANLLLDTLHSDSPALPKVDNDRLFYTILEDYADISNKRDRMKKMKADPHYNALQVKYAYAITCHKAQGGQWQNVFLDQGYMTDEYLTPDYFRWLYTAFTRATKTLYLVNYPKEQIL
MGSDKIHHHHHHMINQVYRLVSERQFEEANIEEALTEDVVVVRPTYLSICAADQRYYTGSRGKEMLSKKLPMALIHEGVGQVTYDATGEFEIGTKVVMIPNTPTEDDPVIAENYRRSSLFRSSGYDGLMQENVFMRRDRVVRLPENMDMEVAAYSELISVAFHAITRFKQKANANQSVFGVWGDGNLGFITCLLLKTIYPESKVIIFGKTQYKLDFFSFVDEAHLVDEIPEGLVIDNAFECAGGKGSQYAVEQIIDLIKPEGTISLLGVSENPIEFNSRMVLEKGLTVFGSSRSGKEDFQNTVNFLSENERAVEYLSSLIGQRKVVRNLQDIIEAFETDLRNPFGKTVMEWKV
MGSDKIHHHHHHMINRKPFFIELELTYKCSQQCIYCHNPPKDLKFYIADKVPKPRSVIEMNELNLSEWISVINQIKRLDEKYEGIMDVVITGGEPLLRSDLEEILSYVTRQKLRHMLLSSGEPISDDRITKLLESGLEKIRINLTSHKYVFNIQSPIMHIKNEVAKKINIAKKFKDFGVKEVGGNIVLTSYYLDFLEEIAELAYKSNLDWIEIHSVIKVGHGYINQKFIVPDPNDERTIQEKLKRLIEIYGENFIQNYVDTDILYSRIPIPTNWGEVGLVIAPNGDIYPSSEATSIPLSKLGNIKNDSLVEIWFNNLLLNKIRSLSFLREPCKSCEVKKLCRGGFRFNAYITKNDLFAPDPSCQIVKDYIGKS
MGSDKIHHHHHHMIPPVPQKGRGTAHNPHNRFAPGHSVAEDDGWYQEVPQTQGTEVRIETAKSVISRNTSPDLPFDRSINPYRGCEHGCIYCYARPSHAYWDLSPGLDFETKLIAKTNAAEVLAQQLSKPGYVCAPINLGSNTDPYQPIEREQLLTRRLLEVLLRFRHPVTIVTKGSLVLRDLDLLAEMARQRLARVMISLTTLDDGLKRVLEPRAASPGARLRAIRVLREAGVPVGVLCSPMIPMINDSELERLLEAAKEAGAQSAAYMMLRLPLEVAPLFEQWLQDHYPQRAAHVLSLIRQSRGGELYDSRFGVRMRGEGVFAELLAQRFAKAMKRLDFEGREAQELDCSAFCPPGGQMALF
MGSDKIHHHHHHMIQITPFLDSKRKTPLYVQLYQYIKEGIESGQLKSDTFLPSIRELALHLRVSKNTVEGAYQQLIAEGYVESIPRVGLKILELEATFLCDKGGKQLQNVTMGEIQREHKSIEFDFVYGEIDTAHLPLKVWKRHVQEVLKGASEELLMYGDPFGDWHLRQELSHYLLQSRGVSCRPEQVVITAGTQHAVSLLCQLLSLHGSTVAFEDPGYNGVRSVFINQGCRIAPIPIEADGLSLSRLHESHANIVYVTPSHQLPCGMILPVHKRSLLLEWAYEHEGYIVEDDYDSEFRYQGQPIPALKALDQNEKVIYLGTFSKSFLPSIRVSYMVLPGELVPLYQQKLANYNQAASQLIQRALYTFIKDGDFQRHIRRMKKVYQSKHHTLLKSVKTYLGDRVTVIGEKSGLHVLLNVPGREDHELIEKAMACGVKVYSTKTFWYNPKNQCSSFIMLGFGKLSEEAIKKGIRRLQQAWF
MGSDKIHHHHHHMIQLAFTKTEISADTAVKQGAALRQMNELLERLSTAPKYHTLTKKDRAQLSREGYAADLVDNLVLITQRKEESTVTDNDNLVVGFTYAAFDPALYANETLKNHFKQMSQGCCCFCESFLMPTASGHISHYRPVQQLDLEGVEHTKPNSECSPYFSEAYQQENLVYVCSGCDVTHKAGRFPIAGERFPHVALSTENALLVNPYQENPRDFIRFNLCNGHAYPFDQACAFYADTQKLTEQDVEALLWKTPSAIPNQVDEAGALLTDSGVEQAFTFWLKSEASQRQSSRGAVTIVTLGLNRSDLVLARLMTLKQYHNDFITHKAALAQPLMPEDIATIAYRSLALDAFATWQSIANGTGSNLANNEGTNKGTNKGTNIGTNIGASEDTNVANSLPLMANTVLKLREQANNTVENPELDILLPSWFRCCLSYLVLESELQQTGKRRLVFLCNQDRLYGETDTEKCIFLSIKWQRDLHKVIKVRSKRNIWEASFSELANSRPHELINLFANNDVWVEGNFQPLA
MGSDKIHHHHHHMIREIRITSFEGLISEMESLGKELWFRGVTNKNYSLIPGSVRFDLNGWKEVSAVLDFMASYQNHHDYIESNWELYSLMQHYGFPTRLLDWSTSVIVALYFALDGDADVDDAGSAIDRVVWGMTTGMLNNLNFLNRRVIPTAIGKATTGEKYLPSPLRKKEGDDFEFEKNPLAVKMPFTNKRVSAQKGCFTIHGSNPKGIEEIMEENGLGSELIKFVFDEEAAMAIRKTLYKLDINEDDIYQDLNSLSKRIVLVNPNWTLLVENFQILQVTDHH
MGSDKIHHHHHHMIRKNHKPAFCDENPIDCHFDVKSYPAGTTVHNNDTNIIYLIFCMKGHARITSTFFHDEILCAGEVMFVPHGSEYSGVALSDVTLLVHKFNNTVCRAENCILSYLYSHKNIDSKIYCCQRRT
MGSDKIHHHHHHMISAEQLVFTYHDQKNPACQISTCQIASGQFIVLCGPSGSGKSTFLKLLNGIIPDYYAGKYEGRLDVADCQAGRDSVETFSRSVASVFQNPASQFFYREVQHELVFPCENQGLDAKVIMKRLWTLAEDFAFAELLNKDMFGLSGGQKQRVAIATAIMQGTNIMLFDEPTANLDSAGIAAVKAYLTQLKAAGKTIIVAEHRLHYLMDLADNFFYFKNGRLTDKLTTQNLLALTDEQRQDMGLRRLDLSDLKPVLAGKIESQHYRPDDSLCIEHLTVRAGSKILRCIEQLSFAVGSISGITGSNGLGKSQLVYYIAGILDDKKATIKFQGIPLSAKQRLSKTSIVLQEVSLQLFAESVSKEVNLGHERHPRTTEVIERLSLTTLLERHPASLSGGEQQRVMIAASLLADKDILIFDEPSSGLDLLQMKALANLLMQLKTQHKVVILISHDEELLSSVCDTIYQMLP
MGSDKIHHHHHHMISSSTVHAFYFSAKYSSFSRAAEILETTQPNISGQIIKLEKDLDTILFIRKQGRVSLSKEGEKLYLVAEKIVNSYKEFDSVVEYFFEEEPIVIVTQPRLYTKYVAPYLTDDLINNNLFHIKTGELTAIKSWLDKEDADIVITEGLFDSHSRYINEGVIDVLKFSWAKKVNEQFDSPCPTLVHSKVWDHWHDLSSALNRNKEFKRKLIIDTPDFAERLIESGVGIGLLPNVMISNNANLEVCHGPTRNNVLGPICLYSKKYSQHKNLRSLVNMFKKESSDS
MGSDKIHHHHHHMITEKVLSYKSPLYGRRTGSLKLRPMNFFTLREFFPSCSWEELVEIYGMTDGIPFYIIQVKPPFWELLEEELKNPISFFKDEVDFLLRYEFSEVTTYKRILEAIALGKTTLKEIKDFTGLRNSDITPYLRNLIEADLIVREVPITEKKTSKKGRYYVLDNFLAFWFRFIYPNLSRIEEGIFNVDEIKGEYPRYLGWVFEKIARQFLIELNKINKLPFKFEKIGRWWYKEEEIDIVALNEREKKGLLVEVKWKTLKEREAREILEVLNKKSKLLGLEGWEKYYGLIAREIKRKEPLIEDGYLVWDLEDFEEIVKQKSREGL
MGSDKIHHHHHHMITSKDNLTLIFVHACGVGNWMWYKQKDYFSNFSCMFIELPEHGDNYNIQPFSVKSAIKMIDKTVRSASGEVVLIGHEMGARLILNYLAEYTNDKVKKIVLSSTMIKTVKEGLFHKILPAKIIEKEFEKKNKNLQNIDFIKKTLDYYGVEEEYKDYYLNDMKRYKPRQLIKIIQEGLLKKLPLNLFIDNDIPALILVGEKETNANRLSAKLLSEYFSNSELIIVDNSTDNHIRTNSMVFNDRVKNFILT
MGSDKIHHHHHHMITYQEQWQKMQMALAIRRIPQAMLFSGSLHCGLIEFTNQVIKLLLCKIKQNEPCLTCMDCQMIERFEHPDVEWIKPERSGGIIKIDQIRGLQSTAFLTPQRTNHKLIIIESAESMNIAASNALLKILEEPAQHTIFILLAQQIGNIPPTVLSRCQITQFAVFDELPCNNLLALGEYYTQELNSTMVFKHSESILEGLIAIIERREHPCTLAAQWIQHELSAFLWFLYLIYSQLQYMHLFRVAYSGTLTKQLNKLSSLLNPVMIFAQVDKINTLLRKLSHNMNINHTLVLEDLLFSLVVDY
MGSDKIHHHHHHMIVLIGGEKGGSGKSCLAQNIAVFLTTECGASVIMVDCDPQRTTSDWIQARNNNPKLASINCVQLYGKIRNDLLSLEQHYDFVIVDCGGQDNLALRATMSVASHILMPLRPKRRDLKTVSHMDDIVATCKMINPKLHASFVITQCPNLPNQANRILEAKEICKTYDINVLDSITYSRNIYDDSEESGLSVLEIEPKGKAAAEIRAIACEMFQVDCAASLTALLKPSTSIAGHHSQINQNQSNHLRGQYGTQRPQEKRYAI
MGSDKIHHHHHHMIYFETERLICRAFERADLQAFTAYRADPEVARYQSWQDYQYQDALALFENLQQTPFGANGTWMQLALVCRQTQALVGDLALHFIDAQQVEIGFTLASEHQGKGLAREALQGLLVYLFERLGKHRVSAITDVKNRAAWGLLERLGFRREAHYRDNIFFKGSWGSEYGYGLLAREWRQAQVGEPLQEFRLIKRVAPLNDFLRLRQITGLTPRSREAAELGLPLSLFGVHLLAGDRVLAMGRVVGDGALNFELVDIAVDPEYQGRGLGSAIMSAIMAYLDEMAPKGAYITLMADVPALYLKFGFEYSRPASEGMYKLQA
MGSDKIHHHHHHMIYIGLPQWSHPKWARLGITSLEEYARHFNCVEGNTTLYALPKAEIVDRWYAQTTDDFRFCFKFPATISHQAALRHCDDLVQAFFTRLAPLETRIGQYWLQLPAAFGPRDLPALWQFLDALPATFTYGVEVRHPCFFDKGEDEQRLNRGLHARGVNRVILDSRPVHAAHPHSEAVRDAQRKKPKVPVHAVVTASHPMVRFIGSDNMAQNREFFAAWLQKLPQWRQTTTPFLFLHTPDIAQAPELVNTLWHDLRSVLPEIGTAPSIPQQSSLF
